2 molecules from paper PMC9067401 (Genes & Development, 2022) can be followed below.

Sequences and labels used below:
B1: Hat2, full-length, yeast (natural protein)
chain: MENQEKPLSVDEEYDLWKSNVPLMYDFVSETRLTWPSLTVQWLPTPVQELDGGFIKQELIIGTHTSGEEENYLKFAEINLPKEILSNEDPQEEAGEEYQSSLPAPRSNIRITAKYEHEEEITRARYMPQDPNIVATINGQGTVFLYSRSEGLQSTLKFHKDNGYALSFSTLVKGRLLSGSDDHTVALWEVGSGGDPTKPVRTWNDLHSDIINDNKWHNFNKDLFGTVSEDSLLKINDVRANNTTIDTVKCPQPFNTLAFSHHSSNLLAAAGMDSYVYLYDLRNMKEPLHHMSGHEDAVNNLEFSTHVDGVVVSSGSDNRLMMWDLKQIGAEQTPDDAEDGVPELIMVHAGHRSSVNDFDLNPQIPWLVASAEEENILQVWKCSHSLPIVGGPPKVNKDIIS
B2: BRIL-fused Hat1ΔC (yeast Hat1 residues 1–320) (enzyme, UniProt Q12341 1-320, looked up)
chain: MSANDFKPETWTSSANEALRVSIVGENAVQFSPLFTYPIYGDSEKIYGYKDLIIHLAFDSVTFKPYVNVKYSAKLGDDNIVDVEKKLLSFLPKDDVIVRDEAKWVDCFAEERKTHNLSDVFEKVSEYSLNGEEFVVYKSSLVDDFARRMHRRVQIFSLLFIEAANYIDETDPSWQIYWLLNKKTKELIGFVTTYKYWHYLGAKSFDEDIDKKFRAKISQFLIFPPYQNKGHGSCLYEAIIQSWLEDKSITEITVEDPNEAFDDLRDRNDIQRLRKLGYDAVFQKHSDLSDEFLESSRKSLKLEERQFNRLVEMLLLLNNS

One assay deals with histone H4(7–102), yeast (yeast, UniProt P02309 8-103). The experiment in a line: crystal structure.
The target of the assay “Hat2, full-length, yeast” is B1. The experiment in a line: crystal structure.

B1: the binding result in the assay with histone H4(7–102), yeast is reported as “binds”.
On to B2, for which the binding result with Hat2, full-length, yeast is “binds”; with histone H4(7–102), yeast, “binds”.
